How the values were obtained:
[1] = biological target: T1, hGARP-proTGFβ1 (human, UniProt Q14392 18-627; P01137 30-390, limits assumed); experiment: BLI (Octet)
T1 construct: LLC as m1; Same id used for the cell-surface complex in reporter assays; also called human GARP-proTGFβ1 complex; GARP-ProTGFb1

[2] = biological target: T2, hLRRC33-proTGFβ1 (human, UniProt Q86YC3 19-650; P01137 30-390, limits assumed); experiment: BLI (Octet)
T2 construct: LLC as m1; Same id used for the cell-surface complex in reporter assays; also called human LRRC33-proTGFβ1 complex; LRRC33-ProTGFb1
T2 sequence (Q86YC3 19-650 limits assumed, chain 1 of 2): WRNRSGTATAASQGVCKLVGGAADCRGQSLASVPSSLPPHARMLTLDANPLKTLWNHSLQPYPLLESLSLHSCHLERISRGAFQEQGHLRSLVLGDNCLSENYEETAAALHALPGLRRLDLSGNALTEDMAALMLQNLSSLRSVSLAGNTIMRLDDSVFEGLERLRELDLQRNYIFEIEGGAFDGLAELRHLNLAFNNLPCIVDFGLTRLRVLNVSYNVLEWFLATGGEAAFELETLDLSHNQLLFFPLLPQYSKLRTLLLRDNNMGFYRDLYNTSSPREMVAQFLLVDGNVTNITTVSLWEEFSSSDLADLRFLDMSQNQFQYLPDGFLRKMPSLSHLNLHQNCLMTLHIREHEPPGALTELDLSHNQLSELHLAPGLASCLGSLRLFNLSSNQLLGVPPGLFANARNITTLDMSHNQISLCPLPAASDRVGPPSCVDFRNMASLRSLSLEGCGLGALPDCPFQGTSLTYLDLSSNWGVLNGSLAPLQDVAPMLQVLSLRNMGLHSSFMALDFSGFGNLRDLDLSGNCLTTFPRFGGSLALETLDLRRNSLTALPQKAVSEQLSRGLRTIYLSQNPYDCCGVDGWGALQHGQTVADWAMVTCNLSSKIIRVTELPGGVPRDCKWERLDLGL
T2 sequence (P01137 30-390 limits assumed, chain 2 of 2): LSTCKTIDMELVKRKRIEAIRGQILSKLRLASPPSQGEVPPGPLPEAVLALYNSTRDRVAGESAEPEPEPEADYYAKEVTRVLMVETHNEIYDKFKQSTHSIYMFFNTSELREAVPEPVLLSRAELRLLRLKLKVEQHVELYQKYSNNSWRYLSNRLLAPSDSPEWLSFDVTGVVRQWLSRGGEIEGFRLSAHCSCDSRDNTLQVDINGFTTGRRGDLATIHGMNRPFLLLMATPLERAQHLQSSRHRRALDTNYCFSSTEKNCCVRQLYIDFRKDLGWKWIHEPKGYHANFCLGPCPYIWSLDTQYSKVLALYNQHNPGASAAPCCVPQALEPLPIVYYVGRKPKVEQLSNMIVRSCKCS

[3] = biological target: T3, hLTBP1-proTGFβ1 (human, UniProt Q14766 347-1721; P01137 30-390, limits assumed); experiment: BLI (Octet)
T3 construct: Large latent complex (LLC): proTGFβ1 dimer disulfide-linked to one presenting molecule; recombinant, purified, biotinylated in BLI/SPR; The same id is used for the complex made by transfected cells in the reporter assays; also called human LTBP1-proTGFβ1 complex; LTBP1-ProTGFb1
T3 sequence (Q14766 347-1721 limits assumed, chain 1 of 2): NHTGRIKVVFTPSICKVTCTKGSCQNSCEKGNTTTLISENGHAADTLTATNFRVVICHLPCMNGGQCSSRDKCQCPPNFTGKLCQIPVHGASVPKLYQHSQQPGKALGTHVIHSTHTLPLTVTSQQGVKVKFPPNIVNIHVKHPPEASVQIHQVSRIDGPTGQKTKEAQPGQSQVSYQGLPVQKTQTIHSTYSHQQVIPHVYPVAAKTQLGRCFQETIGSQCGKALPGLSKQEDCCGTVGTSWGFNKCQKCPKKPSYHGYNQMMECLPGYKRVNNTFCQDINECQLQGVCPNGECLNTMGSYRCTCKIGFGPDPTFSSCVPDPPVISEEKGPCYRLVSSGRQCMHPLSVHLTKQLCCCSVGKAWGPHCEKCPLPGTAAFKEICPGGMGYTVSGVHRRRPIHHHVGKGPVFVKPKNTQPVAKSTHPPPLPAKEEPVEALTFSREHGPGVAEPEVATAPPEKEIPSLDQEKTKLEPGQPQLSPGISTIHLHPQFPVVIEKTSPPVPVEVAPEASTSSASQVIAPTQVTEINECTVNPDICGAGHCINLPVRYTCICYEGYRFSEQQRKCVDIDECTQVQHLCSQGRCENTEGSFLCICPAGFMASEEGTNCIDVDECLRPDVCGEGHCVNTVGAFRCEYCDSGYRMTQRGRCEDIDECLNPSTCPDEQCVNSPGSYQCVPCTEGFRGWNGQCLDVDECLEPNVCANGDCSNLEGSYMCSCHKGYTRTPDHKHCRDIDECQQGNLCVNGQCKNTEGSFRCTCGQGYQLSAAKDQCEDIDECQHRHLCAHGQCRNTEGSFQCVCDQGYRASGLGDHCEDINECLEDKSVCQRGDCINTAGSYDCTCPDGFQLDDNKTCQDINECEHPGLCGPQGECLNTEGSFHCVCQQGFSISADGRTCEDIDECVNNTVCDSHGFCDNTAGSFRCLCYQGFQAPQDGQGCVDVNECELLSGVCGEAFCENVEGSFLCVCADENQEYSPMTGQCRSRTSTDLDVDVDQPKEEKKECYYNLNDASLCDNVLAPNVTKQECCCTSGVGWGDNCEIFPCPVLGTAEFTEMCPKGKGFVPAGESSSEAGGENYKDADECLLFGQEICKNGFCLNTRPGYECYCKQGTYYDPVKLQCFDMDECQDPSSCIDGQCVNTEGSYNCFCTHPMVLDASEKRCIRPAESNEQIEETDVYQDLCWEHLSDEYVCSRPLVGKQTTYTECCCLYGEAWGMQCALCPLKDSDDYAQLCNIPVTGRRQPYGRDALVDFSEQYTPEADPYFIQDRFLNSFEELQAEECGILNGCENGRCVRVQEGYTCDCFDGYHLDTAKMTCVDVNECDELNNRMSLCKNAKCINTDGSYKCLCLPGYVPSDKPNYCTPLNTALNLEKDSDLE
T3 sequence (P01137 30-390 limits assumed, chain 2 of 2): as the sequence (P01137 30-390 limits assumed, chain 2 of 2) above

[4] = biological target: T4, hLTBP3-proTGFβ1 (human, UniProt Q9NS15 44-1303; P01137 30-390, limits assumed); experiment: BLI (Octet)
T4 construct: LLC as m1; Same id used for the cell-made complex in reporter assays; also called human LTBP3-proTGFβ1 complex; LTBP3-ProTGFb1
T4 sequence (Q9NS15 44-1303 limits assumed, chain 1 of 2): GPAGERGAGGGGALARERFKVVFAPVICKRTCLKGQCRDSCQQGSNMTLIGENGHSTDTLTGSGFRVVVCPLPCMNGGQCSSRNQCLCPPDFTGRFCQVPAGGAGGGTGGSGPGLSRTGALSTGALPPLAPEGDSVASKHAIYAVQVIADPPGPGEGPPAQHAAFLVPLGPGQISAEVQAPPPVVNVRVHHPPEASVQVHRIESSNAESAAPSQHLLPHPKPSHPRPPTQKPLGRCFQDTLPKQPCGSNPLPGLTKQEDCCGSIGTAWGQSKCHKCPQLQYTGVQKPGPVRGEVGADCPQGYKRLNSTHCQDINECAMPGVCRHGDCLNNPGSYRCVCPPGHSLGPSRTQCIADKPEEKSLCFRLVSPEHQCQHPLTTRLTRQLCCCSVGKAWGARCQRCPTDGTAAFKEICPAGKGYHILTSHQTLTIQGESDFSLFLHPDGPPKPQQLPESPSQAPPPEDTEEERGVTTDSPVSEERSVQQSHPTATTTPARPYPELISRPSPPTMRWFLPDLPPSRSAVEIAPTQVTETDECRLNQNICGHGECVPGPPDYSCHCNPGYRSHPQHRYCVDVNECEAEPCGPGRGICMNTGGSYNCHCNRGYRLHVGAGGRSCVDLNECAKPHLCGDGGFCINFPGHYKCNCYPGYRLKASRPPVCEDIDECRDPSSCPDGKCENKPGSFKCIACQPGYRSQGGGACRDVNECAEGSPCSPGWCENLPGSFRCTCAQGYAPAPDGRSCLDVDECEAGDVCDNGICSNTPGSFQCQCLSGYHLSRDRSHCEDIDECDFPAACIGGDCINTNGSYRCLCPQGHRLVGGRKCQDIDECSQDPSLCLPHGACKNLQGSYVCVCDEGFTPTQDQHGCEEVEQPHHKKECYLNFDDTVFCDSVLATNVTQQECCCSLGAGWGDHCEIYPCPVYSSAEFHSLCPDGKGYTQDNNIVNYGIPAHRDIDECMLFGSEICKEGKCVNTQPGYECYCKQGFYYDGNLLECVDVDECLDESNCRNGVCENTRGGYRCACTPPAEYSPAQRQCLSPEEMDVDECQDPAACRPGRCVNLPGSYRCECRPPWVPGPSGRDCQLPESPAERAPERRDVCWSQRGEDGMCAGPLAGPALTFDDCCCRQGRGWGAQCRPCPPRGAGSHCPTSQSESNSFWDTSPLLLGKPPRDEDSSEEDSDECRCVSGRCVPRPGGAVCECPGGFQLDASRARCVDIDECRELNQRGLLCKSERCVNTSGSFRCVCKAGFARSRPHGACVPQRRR
T4 sequence (P01137 30-390 limits assumed, chain 2 of 2): as the sequence (P01137 30-390 limits assumed, chain 2 of 2) above

[5] = biological target: T1, hGARP-proTGFβ1; experiment: MSD-SET, hIgG4
Method: (§1) For solution equilibrium titration-based binding assays, protein complexes that comprise one of the presenting molecules such as those shown above may be employed as antigen (presenting molecule-TGFβ1 complex, or an LLC). Test antibodies are allowed to form antigen-antibody complex in solution. Antigen-antibody reaction mixtures are incubated to allow an equilibrium to be reached; the amount of the antigen-antibody complex present in the assay reactions can be measured by suitable means well known in the art. As compared to BLI-based assays, SET-based assays are less affected by on/off rates of the antigen-antibody complex, allowing sensitive detection of very high affinity interactions.

[6] = biological target: T2, hLRRC33-proTGFβ1; experiment: MSD-SET, hIgG4
Method: as §1

[7] = biological target: T3, hLTBP1-proTGFβ1; experiment: MSD-SET, hIgG4
Method: as §1

[8] = biological target: T4, hLTBP3-proTGFβ1; experiment: MSD-SET, hIgG4
Method: as §1

T1 sequence (Q14392 18-627 limits assumed, chain 1 of 2): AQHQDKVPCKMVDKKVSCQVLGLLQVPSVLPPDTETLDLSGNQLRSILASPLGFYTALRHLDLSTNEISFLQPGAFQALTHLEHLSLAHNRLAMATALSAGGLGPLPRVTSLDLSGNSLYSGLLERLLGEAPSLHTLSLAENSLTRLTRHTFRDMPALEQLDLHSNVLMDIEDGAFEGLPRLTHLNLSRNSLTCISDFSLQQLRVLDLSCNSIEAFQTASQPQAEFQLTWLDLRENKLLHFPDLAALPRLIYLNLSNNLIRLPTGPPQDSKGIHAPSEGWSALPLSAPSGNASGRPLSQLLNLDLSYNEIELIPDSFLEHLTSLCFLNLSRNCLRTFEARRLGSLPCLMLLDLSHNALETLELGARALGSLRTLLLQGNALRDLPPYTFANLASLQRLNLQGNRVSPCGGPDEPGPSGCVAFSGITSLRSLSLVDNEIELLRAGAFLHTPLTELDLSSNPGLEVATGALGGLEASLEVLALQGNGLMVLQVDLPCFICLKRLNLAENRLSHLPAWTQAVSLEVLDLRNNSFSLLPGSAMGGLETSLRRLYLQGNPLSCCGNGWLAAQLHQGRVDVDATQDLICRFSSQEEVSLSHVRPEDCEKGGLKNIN
T1 sequence (P01137 30-390 limits assumed, chain 2 of 2): as the sequence (P01137 30-390 limits assumed, chain 2 of 2) above

Kd [1] | Kd [2] | Kd [3] | Kd [4] | Kd [5] | Kd [6] | Kd [7] | Kd [8] | Binder
0.581 nM | 0.41 nM | 0.236 nM | 0.181 nM | 0.019 nM | 0.096 nM | 0.019 nM | 0.014 nM | Ab31 (antibody, V domains shown) VH: EVQLVESGGGLVQPGGSLRLSCAASGFTFSSFSMDWVRQAPGKGLEWVSYISPDASTIYYADSVKGRFTISRDNAKNTLYLQMNSLRAEDTAVYYCARAVLDYGDMLDPWGQGTLVTVSS VL: DIQMTQSPSSLSASVGDRVTITCQASQDITNYLNWYQQKPGKAPKLLIYDASNLETGVPSRFSGSGSGTDFTFTISSLQPEDIATYYCQQADNHPPWTFGGGTKVEIK
0.833 nM | 0.535 nM | 0.332 nM | 0.261 nM | 0.022 nM | 0.14 nM | 0.031 nM | 0.026 nM | Ab30 (antibody, V domains shown) VH: EVQLVESGGGLVQPGGSLRLSCAASGFTFSSFSMDWVRQAPGKGLEWVSYISPDASTIYYADSVKGRFTISRDNAKNSLYLQMNSLRAEDTAVYYCARGTLDYGDMLDPWGQGTLVTVSS VL: DIQMTQSPSSLSASVGDRVTITCQASQDITNYLNWYQQKPGKAPKLLIYDASNLETGVPSRFSGSGSGTDFTFTISSLQPEDIATYYCQQADNHPPWTFGGGTKVEIK

Further lines, the binder ahead of its results:

Binder | Kd [1] | Kd [2] | Kd [3] | Kd [4] | Kd [5] | Kd [6] | Kd [7] | Kd [8]
Ab22 (antibody, V domains shown) VH: EVQLVESGGGLVQPGGSLRLSCAASGFTFGSFSMNWVRQAPGKGLEWVSYIHSDASTIYYADSVKGRFTISRDNAKNSLYLQMNSLRAEDTAVYYCARGVLDYGDMLDPWGQGTLVTVSS VL: DIQMTQSPSSLSASVGDRVTITCQASQDITNYLNWYQQKPGKAPKLLIYDASNLETGVPSRFSGSGSGTDFTFTISSLQPEDIATYYCQQADNHPPWTFGGGTKVEIK | 0.974 nM | 0.415 nM | 0.318 nM | 0.329 nM | 0.027 nM | 0.2 nM | 0.05 nM | 0.033 nM
Ab27 (antibody, V domains shown) VH: EVQLVESGGGLVQPGGSLRLSCAASGFTFSFYAMNWVRQAPGKGLEWVSYISPDASTIYYADSVKGRFTISRDNAKNSLYLQMNSLRAEDTAVYYCARGVLDYGDMLDPWGQGTLVTVSS VL: DIQMTQSPSSLSASVGDRVTITCQASQDITNYLNWYQQKPGKAPKLLIYDASNLETGVPSRFSGSGSGTDFTFTISSLQPEDIATYYCQQADNHPPWTFGGGTKVEIK | 0.424 nM | 0.299 nM | 0.178 nM | 0.238 nM | – | – | – | –
Ab24 (antibody, V domains shown) VH: EVQLVESGGGLVQPGRSLRLSCAASGFTFSSFAMYWVRQAPGKGLEWVSYISPDASTIYYADSVKGRFTISRDNAKNSLYLQMNSLRAEDTAVYYCARGVLDYGDMLDPWGQGTLVTVSS VL: DIQMTQSPSSLSASVGDRVTITCQASQDITNYLNWYQQKPGKAPKLLIYDASNLETGVPSRFSGSGSGTDFTFTISSLQPEDIATYYCQQADNHPPWTFGGGTKVEIK | 0.665 nM | 0.41 nM | 0.246 nM | 0.198 nM | 0.019 nM | 0.18 nM | 0.024 nM | 0.021 nM
Ab28 (antibody, V domains shown) VH: EVQLVESGGGLVQPGGSLRLSCAASGFTFSSFSMDWVRQAPGKGLEWVSYISPDASTIYYADSVKGRFTISRDNAKNSLYLQMNSLRAEDTAVYYCVRGVLDYGDMLDPWGQGTLVTVSS VL: DIQMTQSPSSLSASVGDRVTITCQASQDITNYLNWYQQKPGKAPKLLIYDASNLETGVPSRFSGSGSGTDFTFTISSLQPEDIATYYCQQADNHPPWTFGGGTKVEIK | 0.797 nM | 0.409 nM | 0.34 nM | 0.316 nM | – | – | – | –

Source: patent US20240294623A1 (SCHOLAR ROCK, published 2024)
